Experiment [1] addresses T1, human serum albumin (human, UniProt P02768 25-609).
T1 construct: Bought from Sigma (A4327); also called HSA
Description: SPR, same methods as Example 2. Background: SPR reads the build-up and loss of mass on a sensor chip optically.
Description: (§1) Each serum albumin was directly immobilized on a ligand channel in the vertical orientation of a GLC chip via standard amine coupling at 2.1 μg/mL at pH 5.0 to obtain surfaces with ligand densities of 500-1000 resonance units. […] The dissociation phases for all concentrations were monitored for two hours at a flow rate of 100 μL/min using PBST (PBS, 0.005% Tween20) as running buffer. A sixth sample (buffer only) was injected to monitor the baseline stability. The surfaces were regenerated using 1 short pulse (18 μL) of 0.8% phosphoric acid.
(§2) The raw response data were first processed by subtracting the buffer only responses and the non-specific binding between the analytes and the chip. Processed data of all five concentrations were globally fit to a 1:1 simple langmuir binding model for each ligand surface.

Experiment [2] deals with T2, murine serum albumin (murine, UniProt P07724 25-608).
T2 construct: Bought from Sigma (A3559); also called mouse serum albumin; Mouse
Description: SPR, same methods as Example 2.
Description: as §1, §2

In experiment [3] the target is T2, murine serum albumin. Description: KD column of the mouse PK table; method and albumin species not stated there.
The target in experiment [4] is T1, human serum albumin. Put plainly: SPR (ProteOn XPR-36), albumin immobilized, ABDCon as analyte.
Description: as §1, §2
The target of experiment [5] is T3, Rhesus serum albumin (Rhesus, UniProt Q28522 17-600, limits assumed).
T3 construct: Bought from Sigma (A4297)
T3 sequence (Q28522 17-600 limits assumed): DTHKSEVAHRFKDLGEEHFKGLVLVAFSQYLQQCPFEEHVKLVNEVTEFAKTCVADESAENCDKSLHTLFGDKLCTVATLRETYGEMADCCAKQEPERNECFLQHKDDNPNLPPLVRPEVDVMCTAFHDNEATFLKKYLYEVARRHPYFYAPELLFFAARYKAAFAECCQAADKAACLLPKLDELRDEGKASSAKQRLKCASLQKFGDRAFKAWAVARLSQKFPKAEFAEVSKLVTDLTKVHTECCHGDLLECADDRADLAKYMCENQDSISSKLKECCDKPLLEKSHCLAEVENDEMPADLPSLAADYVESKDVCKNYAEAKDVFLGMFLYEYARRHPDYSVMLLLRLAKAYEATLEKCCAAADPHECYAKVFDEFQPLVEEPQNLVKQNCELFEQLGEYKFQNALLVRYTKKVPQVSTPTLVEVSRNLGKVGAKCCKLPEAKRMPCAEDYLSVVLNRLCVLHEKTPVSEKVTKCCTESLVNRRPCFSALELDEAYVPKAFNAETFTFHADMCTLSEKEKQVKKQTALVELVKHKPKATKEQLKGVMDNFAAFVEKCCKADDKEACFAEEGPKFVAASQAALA
The description is as above.
Description: as §1, §2

In experiment [6] the target is T2, murine serum albumin. The description is as above.
Description: as §1, §2
The target of experiment [7] is T3, Rhesus serum albumin. Description: SPR.
Experiment [8] addresses T2, murine serum albumin. Description: SPR.

Where a chain is given by its changes, count along the chain named. In names and notes the source's numbering stands. Ends that are not written are not given here.

T2 sequence (P07724 25-608 limits assumed): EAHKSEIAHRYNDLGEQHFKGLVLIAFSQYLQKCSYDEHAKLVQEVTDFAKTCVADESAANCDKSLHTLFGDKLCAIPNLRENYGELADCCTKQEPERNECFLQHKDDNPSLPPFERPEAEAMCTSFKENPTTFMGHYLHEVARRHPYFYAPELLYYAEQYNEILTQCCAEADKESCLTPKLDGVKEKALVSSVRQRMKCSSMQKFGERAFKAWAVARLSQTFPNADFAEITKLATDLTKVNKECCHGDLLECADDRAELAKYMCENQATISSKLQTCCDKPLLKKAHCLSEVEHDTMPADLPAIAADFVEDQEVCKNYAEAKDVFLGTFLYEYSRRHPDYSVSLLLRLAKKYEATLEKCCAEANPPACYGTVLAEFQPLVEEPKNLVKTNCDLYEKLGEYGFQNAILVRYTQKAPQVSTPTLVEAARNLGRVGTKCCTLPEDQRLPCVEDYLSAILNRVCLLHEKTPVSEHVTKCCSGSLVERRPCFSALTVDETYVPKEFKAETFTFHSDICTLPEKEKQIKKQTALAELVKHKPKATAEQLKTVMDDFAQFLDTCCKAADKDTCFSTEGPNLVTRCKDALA

B1: ABDCon12 (designed binder)
chain: TIDEWLLKEAKEKAIEELKKAGITSDYYFDLINKAKTVEGVNALKDEILKA
notes: also called ABDCon with N-terminal TIDEWL extension; not shown: N-terminal poly histidine tag
Usually Kd stands for the constant that tells how readily two partners part at equilibrium. For B1, the Kd was 0.7 nM with human serum albumin [1] and 8.2 nM with murine serum albumin [2].

B2: Tencon25-ABDCon fusion protein (designed binder)
chain: MLPAPKNLVVSEVTEDSARLSWTAPDAAFDSFLIQYQESEKVGEAIVLTVPGSERSYDLTGLKPGTEYTVSIYGVKGGHRSNPLSAIFTTGGGGSGGGGSLKEAKEKAIEELKKAGITSDYYFDLINKAKTVEGVNALKDEILKA
notes: not shown: C-terminal poly-histidine tag
With B2, the Kd in the experiment with murine serum albumin [3] was 1.86 nM.

B3: ABDCon (non-natural albumin binding domain consensus) (designed binder)
chain: LKEAKEKAIEELKKAGITSDYYFDLINKAKTVEGVNALKDEILKA
modifications: not fully specified (N-terminus)
notes: Expressed in E. coli with an N-terminal 8-His tag; measured mass 6383 Da; not shown: N-terminal 8-His tag
The term koff denotes a measure of how fast the partners let go of each other. The low end stands for slow dissociation, the high end for fast dissociation. What is called kon is the second-order rate constant of association. The low end stands for slower complex formation, the high end for faster complex formation. In the experiment with human serum albumin [4], B3 showed a Kd of 0.0748 nM, a koff of 3.02e-05 s⁻¹ and a kon of 404000 M⁻¹ s⁻¹. Further, in the experiment with Rhesus serum albumin [5], the affinity, expressed as Kd, was 0.0601 nM; the koff was found to be 6.78e-05 s⁻¹; the kon was determined as 1.13e+06 M⁻¹ s⁻¹. For the same molecule, in the experiment with murine serum albumin [6], the equilibrium dissociation constant (Kd) amounted to 3.22 nM, the koff was 0.000776 s⁻¹ and the kon was 241000 M⁻¹ s⁻¹.

B4: ABDCon10 (designed binder)
chain: B3 chain with A37V
modifications: not fully specified
notes: Expressed and purified as described for ABDCon; also called ABDCon A37V; not shown: N-terminal 8-His tag as for ABDCon
Turning to B4, the Kd with Rhesus serum albumin [7] worked out at 1.3 nM; with murine serum albumin [8] it was 37.8 nM.

B5: ABDCon8 (designed binder)
chain: B3 chain with K30D
modifications: not fully specified
notes: Expressed and purified as described for ABDCon; also called ABDCon K30D; not shown: N-terminal 8-His tag as for ABDCon
Regarding B5, the Kd with Rhesus serum albumin [7] is 65 nM; in the experiment with murine serum albumin [8] it was 1000 nM.

B6: ABDCon3 (designed binder)
chain: B3 chain with Y21K
modifications: not fully specified
notes: Expressed and purified as described for ABDCon; also called ABDCon Y21K; not shown: N-terminal 8-His tag as for ABDCon
As to B6, the Kd with Rhesus serum albumin [7] was 5.1 nM; with murine serum albumin [8], 103 nM.

B7: ABDCon4 (designed binder)
chain: B3 chain with Y22A
modifications: not fully specified
notes: Expressed and purified as described for ABDCon; also called ABDCon Y22A; not shown: N-terminal 8-His tag as for ABDCon
In the case of B7, the Kd with Rhesus serum albumin [7] stood at 43.7 nM; with murine serum albumin [8] it was 571 nM.

B8: ABDCon7 (designed binder)
chain: B3 chain with E41Q
modifications: not fully specified
notes: Expressed and purified as described for ABDCon; also called ABDCon E41Q; not shown: N-terminal 8-His tag as for ABDCon
As to B8, the Kd turned out to be 0.5 nM with Rhesus serum albumin [7] and 20.6 nM with murine serum albumin [8].

B9: ABDCon2 (designed binder)
chain: B3 chain with Y21A
modifications: not fully specified
notes: Expressed and purified as described for ABDCon; also called ABDCon Y21A; not shown: N-terminal 8-His tag as for ABDCon
As to B9, the Kd with Rhesus serum albumin [7] came to 17.5 nM.

B10: ABDCon6 (designed binder)
chain: B3 chain with Y22V
modifications: not fully specified
notes: Expressed and purified as described for ABDCon; also called ABDCon Y22V; not shown: N-terminal 8-His tag as for ABDCon
Consider B10, for which the dissociation constant Kd in the experiment with Rhesus serum albumin [7] was determined as 8.4 nM; with murine serum albumin [8], 190 nM.

B11: ABDCon9 (designed binder)
chain: B3 chain with T31A
modifications: not fully specified
notes: Expressed and purified as described for ABDCon; also called ABDCon T31A; not shown: N-terminal 8-His tag as for ABDCon
Turning to B11, the Kd is 206 nM with Rhesus serum albumin [7] and 551 nM in the experiment with murine serum albumin [8].

B12: ABDCon5 (designed binder)
chain: B3 chain with Y22S
modifications: not fully specified
notes: Expressed and purified as described for ABDCon; also called ABDCon Y22S; not shown: N-terminal 8-His tag as for ABDCon
Turning to B12, the Kd with Rhesus serum albumin [7] came to 104 nM; in the experiment with murine serum albumin [8] it was 1650 nM.

These data come from patent publication US20160083436A1 (Janssen / Centocor, published 2016).
